How the values were obtained:
[1] = target: SUMO-HSV-1 peptide AB (herpes simplex virus type 1 (HSV-1)); test: ITC
pcGAS [2] = format: biochemical, porcine; conditions: pH 7.5
PRV US1 = target: T1, PRV US1 (pseudorabies virus, UniProt A0AAX7FDV8 1-364); test: EMSA; molar ratio 0-16; EMSA: 2.5 uM ISD45, DNA:protein molar ratio 1:0 to 1:32, 0.8% agarose, 40 mM Tris-HCl pH 9.2 running buffer, 110 V, ethidium bromide; binding buffer and temperature not stated (protein stock 20 mM Tris-HCl pH 7.5, 150 mM NaCl, 5 mM DTT); conditions: protein: recombinant; tags: His6-SUMO removed; blunt
T1 sequence: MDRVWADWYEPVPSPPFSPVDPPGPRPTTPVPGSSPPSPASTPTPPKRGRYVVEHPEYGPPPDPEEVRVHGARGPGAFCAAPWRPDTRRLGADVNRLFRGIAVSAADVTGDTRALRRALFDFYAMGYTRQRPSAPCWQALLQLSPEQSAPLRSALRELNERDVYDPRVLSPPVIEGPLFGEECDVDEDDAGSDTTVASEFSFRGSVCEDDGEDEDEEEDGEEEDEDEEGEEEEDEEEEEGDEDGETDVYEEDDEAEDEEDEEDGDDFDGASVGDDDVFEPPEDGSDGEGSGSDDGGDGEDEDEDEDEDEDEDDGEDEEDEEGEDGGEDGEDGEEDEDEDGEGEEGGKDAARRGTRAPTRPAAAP

mcGAS = mcGAS (Mus musculus? (mouse), UniProt Q8C6L5 1-507); test: EMSA; no US1; EMSA: 2.5 uM ISD45, DNA:protein molar ratio 1:0 to 1:32, 0.8% agarose, 40 mM Tris-HCl pH 9.2 running buffer, 110 V, ethidium bromide; binding buffer and temperature not stated (protein stock 20 mM Tris-HCl pH 7.5, 150 mM NaCl, 5 mM DTT); conditions: protein: recombinant; tags: N-terminal Flag, C-terminal HA; His6-SUMO removed; chain copies: 2; blunt
hcGAS = hcGAS (Homo sapiens? (human), UniProt Q8N884 1-522); test: as above; conditions: protein: recombinant; tags: N-terminal Flag, C-terminal HA; His6-SUMO removed; blunt
pcGASNT = target: T2, pcGASNT (Sus scrofa? (porcine), UniProt I3LM39 1-134); test: as above; conditions: protein: recombinant; tags: Flag/HA double tag vector; His6-SUMO; blunt
T2 sequence: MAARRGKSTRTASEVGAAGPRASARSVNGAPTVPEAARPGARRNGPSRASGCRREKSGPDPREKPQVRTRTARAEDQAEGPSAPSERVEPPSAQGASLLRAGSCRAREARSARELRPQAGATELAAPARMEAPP

pcGASCT = target: T3, pcGASCT (Sus scrofa? (porcine), UniProt I3LM39 145-495); test: as above; conditions: protein: recombinant; tags: Flag/HA double tag vector; His6-SUMO; blunt
T3 sequence: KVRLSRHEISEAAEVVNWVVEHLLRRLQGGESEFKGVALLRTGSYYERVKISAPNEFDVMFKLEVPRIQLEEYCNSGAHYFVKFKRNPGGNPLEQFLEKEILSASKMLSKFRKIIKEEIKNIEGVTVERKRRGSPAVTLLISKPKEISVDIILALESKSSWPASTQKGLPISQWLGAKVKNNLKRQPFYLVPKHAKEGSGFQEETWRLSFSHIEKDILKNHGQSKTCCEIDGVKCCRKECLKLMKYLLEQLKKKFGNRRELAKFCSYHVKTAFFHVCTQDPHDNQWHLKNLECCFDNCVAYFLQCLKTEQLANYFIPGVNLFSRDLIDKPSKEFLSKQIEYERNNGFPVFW

pcGAS [3] = target: T4, pcGAS (Sus scrofa? (porcine), UniProt I3LM39 1-495); test: as above; conditions: protein: recombinant; tags: N-terminal Flag, C-terminal HA; His6-SUMO removed; blunt
T4 sequence: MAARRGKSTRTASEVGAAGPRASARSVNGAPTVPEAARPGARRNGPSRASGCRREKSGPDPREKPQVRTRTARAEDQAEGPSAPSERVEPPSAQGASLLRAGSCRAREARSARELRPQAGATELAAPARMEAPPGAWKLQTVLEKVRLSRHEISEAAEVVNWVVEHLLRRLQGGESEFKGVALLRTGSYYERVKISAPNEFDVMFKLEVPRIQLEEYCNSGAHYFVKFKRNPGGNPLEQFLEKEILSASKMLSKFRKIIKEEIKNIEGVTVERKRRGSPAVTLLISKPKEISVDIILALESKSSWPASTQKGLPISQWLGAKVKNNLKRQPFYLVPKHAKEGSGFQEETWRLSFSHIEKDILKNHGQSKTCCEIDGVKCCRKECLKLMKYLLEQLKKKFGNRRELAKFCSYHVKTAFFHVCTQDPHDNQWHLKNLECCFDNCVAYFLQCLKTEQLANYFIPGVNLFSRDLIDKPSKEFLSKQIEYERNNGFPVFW

mcGAS, sequence (Q8C6L5 whole entry): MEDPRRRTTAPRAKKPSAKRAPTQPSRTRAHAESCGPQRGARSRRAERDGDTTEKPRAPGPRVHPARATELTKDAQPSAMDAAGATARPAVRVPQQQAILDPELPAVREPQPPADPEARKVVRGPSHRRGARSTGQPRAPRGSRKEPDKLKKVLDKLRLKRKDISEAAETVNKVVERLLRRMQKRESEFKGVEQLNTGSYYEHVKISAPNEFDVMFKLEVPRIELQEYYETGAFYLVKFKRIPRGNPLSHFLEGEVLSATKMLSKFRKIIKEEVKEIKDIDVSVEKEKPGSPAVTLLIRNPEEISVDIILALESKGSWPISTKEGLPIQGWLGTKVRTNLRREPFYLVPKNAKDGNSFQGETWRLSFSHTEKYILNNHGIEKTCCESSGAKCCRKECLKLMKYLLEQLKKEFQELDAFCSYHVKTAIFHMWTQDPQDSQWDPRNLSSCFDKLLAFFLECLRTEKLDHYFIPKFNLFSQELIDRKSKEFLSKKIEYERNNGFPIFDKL
hcGAS, sequence (Q8N884 whole entry): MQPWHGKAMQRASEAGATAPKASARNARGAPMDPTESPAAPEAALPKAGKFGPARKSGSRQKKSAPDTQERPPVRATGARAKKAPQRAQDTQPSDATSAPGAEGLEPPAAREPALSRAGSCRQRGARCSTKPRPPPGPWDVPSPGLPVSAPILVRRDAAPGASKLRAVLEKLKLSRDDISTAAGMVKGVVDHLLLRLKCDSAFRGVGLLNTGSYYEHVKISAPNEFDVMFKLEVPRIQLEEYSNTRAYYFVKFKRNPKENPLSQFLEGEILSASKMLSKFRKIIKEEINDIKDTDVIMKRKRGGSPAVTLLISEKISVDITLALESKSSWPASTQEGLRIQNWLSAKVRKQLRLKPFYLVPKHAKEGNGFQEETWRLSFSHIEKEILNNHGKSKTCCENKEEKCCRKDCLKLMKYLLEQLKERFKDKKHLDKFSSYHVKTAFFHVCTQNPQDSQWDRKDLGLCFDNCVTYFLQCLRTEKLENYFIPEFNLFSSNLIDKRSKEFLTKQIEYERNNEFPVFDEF

Molecule “pcGAS^CT (C-terminus, catalytic domain of porcine cGAS) (domain or fragment)” has a Kd [1] of 2.85 µM.

For AWKLQT [random peptide], the “effect on cGAS enzymatic activity / cGAMP synthesis” value (pcGAS [2]) was “neither peptide A nor peptide B, nor the random peptide inhibited cGAMP synthesis”.

In the case of “hcGAS^CT (C-terminus, catalytic domain of human cGAS) (domain or fragment)”, the Kd [1] is reported as 15.7 µM.

B1: ISD45 (dsDNA)
DNA 1: TACAGATCTACTAGTGATCTATGACTGATCTGTACATGATCTACA
DNA 2: TGTAGATCATGTACAGATCAGTCATAGATCACTAGTAGATCTGTA
B1: no binding (PRV US1); binds (mcGAS); binds (hcGAS). B1: binds (pcGASNT); binds (pcGASCT); binds (pcGAS [3]).

Reference: publication PMC12604781 (PLOS Pathogens, 2025)
